Assay results published in IntAct's records for PubMed 23706739.

B1: Proteasome activator complex subunit 4 (Homo sapiens), Q14997 (parent)
chain: MEPAERAGVGEPPEPGGRPEPGPRGFVPQKEIVYNKLLPYAERLDAESDLQLAQIKCNLGRAVQLQELWPGGLFWTRKLSTYIRLYGRKFSKEDHVLFIKLLYELVSIPKLEISMMQGFARLLINLLKKKELLSRADLELPWRPLYDMVERILYSKTEHLGLNWFPNSVENILKTLVKSCRPYFPADATAEMLEEWRPLMCPFDVTMQKAITYFEIFLPTSLPPELHHKGFKLWFDELIGLWVSVQNLPQWEGQLVNLFARLATDNIGYIDWDPYVPKIFTRILRSLNLPVGSSQVLVPRFLTNAYDIGHAVIWITAMMGGPSKLVQKHLAGLFNSITSFYHPSNNGRWLNKLMKLLQRLPNSVVRRLHRERYKKPSWLTPVPDSHKLTDQDVTDFVQCIIQPVLLAMFSKTGSLEAAQALQNLALMRPELVIPPVLERTYPALETLTEPHQLTATLSCVIGVARSLVSGGRWFPEGPTHMLPLLMRALPGVDPNDFSKCMITFQFIATFSTLVPLVDCSSVLQERNDLTEVERELCSATAEFEDFVLQFMDRCFGLIESSTLEQTREETETEKMTHLESLVELGLSSTFSTILTQCSKEIFMVALQKVFNFSTSHIFETRVAGRMVADMCRAAVKCCPEESLKLFVPHCCSVITQLTMNDDVLNDEELDKELLWNLQLLSEITRVDGRKLLLYREQLVKILQRTLHLTCKQGYTLSCNLLHHLLRSTTLIYPTEYCSVPGGFDKPPSEYFPIKDWGKPGDLWNLGIQWHVPSSEEVSFAFYLLDSFLQPELVKLQHCGDGKLEMSRDDILQSLTIVHNCLIGSGNLLPPLKGEPVTNLVPSMVSLEETKLYTGLEYDLSRENHREVIATVIRKLLNHILDNSEDDTKSLFLIIKIIGDLLQFQGSHKHEFDSRWKSFNLVKKSMENRLHGKKQHIRALLIDRVMLQHELRTLTVEGCEYKKIHQDMIRDLLRLSTSSYSQVRNKAQQTFFAALGAYNFCCRDIIPLVLEFLRPDRQGVTQQQFKGALYCLLGNHSGVCLANLHDWDCIVQTWPAIVSSGLSQAMSLEKPSIVRLFDDLAEKIHRQYETIGLDFTIPKSCVEIAELLQQSKNPSINQILLSPEKIKEGIKRQQEKNADALRNYENLVDTLLDGVEQRNLPWKFEHIGIGLLSLLLRDDRVLPLRAIRFFVENLNHDAIVVRKMAISAVAGILKQLKRTHKKLTINPCEISGCPKPTQIIAGDRPDNHWLHYDSKTIPRTKKEWESSCFVEKTHWGYYTWPKNMVVYAGVEEQPKLGRSREDMTEAEQIIFDHFSDPKFVEQLITFLSLEDRKGKDKFNPRRFCLFKGIFRNFDDAFLPVLKPHLEHLVADSHESTQRCVAEIIAGLIRGSKHWTFEKVEKLWELLCPLLRTALSNITVETYNDWGACIATSCESRDPRKLHWLFELLLESPLSGEGGSFVDACRLYVLQGGLAQQEWRVPELLHRLLKYLEPKLTQVYKNVRERIGSVLTYIFMIDVSLPNTTPTISPHVPEFTARILEKLKPLMDVDEEIQNHVMEENGIGEEDERTQGIKLLKTILKWLMASAGRSFSTAVTEQLQLLPLFFKIAPVENDNSYDELKRDAKLCLSLMSQGLLYPHQVPLVLQVLKQTARSSSWHARYTVLTYLQTMVFYNLFIFLNNEDAVKDIRWLVISLLEDEQLEVREMAATTLSGLLQCNFLTMDSPMQIHFEQLCKTKLPKKRKRDPGSVGDTIPSAELVKRHAGVLGLGACVLSSPYDVPTWMPQLLMNLSAHLNDPQPIEMTVKKTLSNFRRTHHDNWQEHKQQFTDDQLLVLTDLLVSPCYYA

Variants of: B1
Settings: with h4_human H4C16, P62805

effect of a mutation on the interaction	Variant
disrupting interaction strength	N1716T;F1717S
